Reference: US20260125454A1 (SHANGHAI JUNSHI BIOSCIENCES, published 2026)
Like-named read-outs stand apart in the source and are kept apart here.

T1: Biotin-huCGRPaSA (human, not fully specified; biotin (position not given))
T1 construct: exact construct ('aSA') not explained; also called Biotin CGRPaSA; full-length (1-37) CGRP
T1 peptide: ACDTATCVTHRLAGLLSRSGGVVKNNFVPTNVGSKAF


Legend:
CGRP antigen [1] = assay: cell-based or functional assay
Biotin-huCGRPaSA [2] = molecular target: T1, Biotin-huCGRPaSA; assay: ELISA, supernatant; relative to chimeric C245
How it was run: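 Plates coated with biotin-CGRPaSA at 1.0 μg/mL (90 min, 37°C) and blocked with 2% BSA. Humanized antibodies and chimeric C245 reference, 2.5-fold serial dilutions from 1000 ng/mL, bound 60 min at 37°C. Detection by HRP anti-human IgG (Fc), TMB 15 min, read at 450/620 nm.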

Biotin-huCGRPaSA [3] = molecular target: T1, Biotin-huCGRPaSA; assay: ELISA, transfection supernatant, biotin-CGRP on streptavidin
Procedure: Streptavidin was diluted to 0.5 μg/mL by using PBS (Hyclone) and added into a plate at 100 μL/well. The plate was incubated in a thermostat incubator at 37° C. for 90 min and then washed. 2% BSA was added to the plate at 200 μL/well, and the plate was incubated in the thermostat incubator at 37° C. for 90 min and washed. Biotin-huCGRPaSA was diluted to 2.0 μg/mL with 2% BSA and added into the plate at 100 μL/well, and the plate was incubated in the thermostat incubator at 37° C. for 60 min. The reference antibody (47-RM) was diluted to 2500 ng/ml with a diluent (2% BSA) and serially 4-fold diluted to 0.15 ng/mL, and the chimeric antibodies were diluted with a cell supernatant stock solution. All the chimeric antibody solutions and the reference antibody solution were added into plates at 80 μL/well, and the plates were incubated in a thermostat incubator at 37° C. for 60 min and washed. An HRP-conjugated mouse anti-human antibody IgG4 (manufacturer: Southern Biotech, Cat. No. 9200-05; Fc specificity) was diluted 5000-fold with 2% BSA and added into the plates at 100 μL/well, and the plates were incubated in the thermostat incubator at 37° C. for 60 min and washed. 0.1 mg/mL chromogenic reagent TMB was carefully added at 100 μL/well to avoid bubbles, and the system was incubated at 37° C. for 10 min away from light for chromogenic reaction. Finally, a 2 M hydrochloric acid solution was added at 100 μL/well to stop the reaction while avoiding bubbles, and the plates were read on a microplate reader within 10 min (the detection wavelength was 450 nm; the reference wavelength was 620 nm).

Biotin-huCGRPaSA [4] = molecular target: T1, Biotin-huCGRPaSA; assay: ELISA, purified antibody; relative to reference 47-RM-20190815
Procedure: Streptavidin was diluted to […] by using PBS (Hyclone) and added into a plate at 100 μL/well. The plate was incubated in a thermostat incubator at 37° C. for 90 min and then washed. 2% BSA was added to the plate at 200 μL/well, and the plate was incubated in the thermostat incubator at 37° C. for 90 min and washed. Biotin-huCGRPaSA was diluted to 2.0 μg/mL with 2% BSA and added into the plate at 100 μL/well, and the plate was incubated in the thermostat incubator at 37° C. for 60 min. The chimeric antibodies in Table 3 and reference antibody (47-RM-20190815) were diluted to 1000 ng/ml with a diluent (2% BSA) and serially 10-fold diluted to 1 ng/mL. All the chimeric antibody solutions and the reference antibody solution were added into plates at 100 μL/well, and the plates were incubated in a thermostat incubator at 37° C. for 60 min and washed. An HRP-conjugated mouse anti-human antibody IgG4 (manufacturer: Southern Biotech, Cat. No. 9200-05; Fc specificity) was diluted 5000-fold with 2% BSA and added into the plates at 100 μL/well, and the plates were incubated in the thermostat incubator at 37° C. for 60 min and washed. 0.1 mg/mL chromogenic reagent TMB was carefully added at 100 μL/well to avoid bubbles, and the system was incubated at 37° C. for 5 min away from light for chromogenic reaction. Finally, a 2 M hydrochloric acid solution was added at 100 μL/well to stop the reaction while avoiding bubbles, and the plates were read on a microplate reader within 10 min (the detection wavelength was 450 nm; the reference wavelength was 620 nm). EC₅₀ was fit by using a four-parameter logistic regression (4PL) model.

CGRP antigen [5] = assay: cell-based or functional assay; remark: listed apart in the source
CGRP antigen [6] = assay: cell-based or functional assay; remark: listed apart in the source

Row | Binder | OD value (Biotin-huCGRPaSA [3]) [OD] | Relative activity (%) (Biotin-huCGRPaSA [4]) | other results
1 | hu38 (antibody, V domains shown, 1F5 HC-1/3H10 LC2-1) VH: QVQLVQSGAEVKKPGASVKVSCKASGYTFIDFNMHWVRQAPGQRLEWMGYIYPYNGDVVYNQNFTNRVTLTVDTSSSTAYMELSSLRSEDTAVYYCAREGLGGYWGQGTLVTVSS VL: DIVLTQSPDSLAVSLGERATINCKASQNIDYGGYSYMNWYQQKPGQPPKVLIYSVFNLESGVPDRFSGSGSGTDFTLTISSLQAEDVAVYYCQQSNEAPYTFGQGTKLEIK | – | – | IC50 (CGRP antigen [1]): 0.0725 µg/mL; relative activity (%) vs Ref(TEVA) (CGRP antigen [1]): 50%; Relative binding activity, % (Biotin-huCGRPaSA [2]): 139%
2 | hu237 (antibody, V domains shown, 3C1 HC-4/3C1 LC-4) VH: QVQLVQSGAEVKKPGASVKVSCKASGYTFTGYTMNWVRQAPGQGLEWMGLINPYIGNTHYNQKFKDRVTFTVDRSSSTAYMELSRLRSDDTAVYYCARELDSGFDYWGQGTLVTVSS VL: DVVMTQSPDSLAVSLGERATINCRSSQNIVHSNADTYLEWYQQKPGQPPKLLIYKVSNRFSGVPDRFSGSGSGTDFTLTISSLQAEDVAVYYCYQGSHVPWTFGQGTKLEIK | – | – | IC50 (CGRP antigen [1]): 0.129 µg/mL; relative activity (%) vs C245 (CGRP antigen [1]): 22%; Relative binding activity, % (Biotin-huCGRPaSA [2]): 65%
3 | C125 (antibody, V domains shown, 2B8-HC1 + 2B8-LC2; chimeric, human constant regions) VH: EVQLQQSGPELVKPGASVKISCKASGYTFTDYNMHWVKQSHGKSLEWIGNIYPYNGGTVYNQKFNNKATLTVHTSSSTAYMDLRSLTSDDSAVYYCAREGLGGYWGQGTTLTVSS VL: DVVLTQSPTSLAVSLGQRATISCQASQNIDGNTYMNWYQQKPGQPPKVLIYSIFNLESGIPARFSGSGSGTHFTLTIHPVEEEDAATYYCQQSNDYPYTFGGGTKLEIK | 3.08 | 62.9 | Relative binding activity (%) vs Ref(Teva) (CGRP antigen [5]): 76.4%
4 | C350 (antibody, V domains shown, 3H10-HC + 1F5-LC1; chimeric, human constant regions) VH: EVQLQQSGPELVQPGASVKISCKASGYTFTDYNMHWVKQSHGESLEWIGYIYPYNGHTVYNQKFRNKATMTVDSSSSTAYMDLRSLTSEDSAVYYCAKEGLGGYWGQGTTLTVSS VL: DIVLTQSPASLAVSLGQRATISCKASQNIDFDGYAYMNWYQHKPGQPPRVLIYSVFNLESGIPARFSGSGSGTDFTLNIHPVEEEDAATYYCQQSHEVPYTFGGGTNLEIK | 3 | 108 | –
5 | C258 (antibody, V domains shown, 3E5-HC + 1F5-LC1; chimeric, human constant regions) VH: EVQLQQSGPELVKPGASVKISCKTSGYTFTDYNMHWVKQSHGKSLEWIGYISPYNGGTAYNQKFKFKSTLTVDTSSSTAYMELRSLTSEDSAVYYCAREGLGGYWGQGTTLTVSS VL: DIVLTQSPASLAVSLGQRATISCKASQNIDFDGYAYMNWYQHKPGQPPRVLIYSVFNLESGIPARFSGSGSGTDFTLNIHPVEEEDAATYYCQQSHEVPYTFGGGTNLEIK | 3.12 | 99.8 | Relative binding activity (%) vs Ref(Teva) (CGRP antigen [6]): 117%
6 | C276 (antibody, V domains shown, 3E5-HC + 3H10-LC2; chimeric, human constant regions) VH: EVQLQQSGPELVKPGASVKISCKTSGYTFTDYNMHWVKQSHGKSLEWIGYISPYNGGTAYNQKFKFKSTLTVDTSSSTAYMELRSLTSEDSAVYYCAREGLGGYWGQGTTLTVSS VL: DIVLTQSPDSLAVSLGQRATISCKASQNIDYGGYSYMNWYQQKPGQPPKVLIYSVFNLESGIPARFSGSGSGTDFTLTIHPVEEEDAATYYCQQSNEAPYTFGGGTKLEIR | 3.01 | 84.1 | –
7 | C131 (antibody, V domains shown, 2B8-HC1 + 3E5-LC; chimeric, human constant regions) VH: EVQLQQSGPELVKPGASVKISCKASGYTFTDYNMHWVKQSHGKSLEWIGNIYPYNGGTVYNQKFNNKATLTVHTSSSTAYMDLRSLTSDDSAVYYCAREGLGGYWGQGTTLTVSS VL: DIVLTQSPASLAVSLGQRATISCKASQNIDYDGYTYLNWYQQKPGQPPKVLIYSIFNLESGIPARFSGSGSGTDFTLNIHPVEEEDAATYYCQQSNEVPYTFGGGTKLEIK | 3.02 | 116 | –
8 | C138 (antibody, V domains shown, 2B8-HC1 + 3H10-LC2; chimeric, human constant regions) VH: EVQLQQSGPELVKPGASVKISCKASGYTFTDYNMHWVKQSHGKSLEWIGNIYPYNGGTVYNQKFNNKATLTVHTSSSTAYMDLRSLTSDDSAVYYCAREGLGGYWGQGTTLTVSS VL: DIVLTQSPDSLAVSLGQRATISCKASQNIDYGGYSYMNWYQQKPGQPPKVLIYSVFNLESGIPARFSGSGSGTDFTLTIHPVEEEDAATYYCQQSNEAPYTFGGGTKLEIR | 3.06 | 136 | –
9 | C263 (antibody, V domains shown, 3E5-HC + 2B8-LC2; chimeric, human constant regions) VH: EVQLQQSGPELVKPGASVKISCKTSGYTFTDYNMHWVKQSHGKSLEWIGYISPYNGGTAYNQKFKFKSTLTVDTSSSTAYMELRSLTSEDSAVYYCAREGLGGYWGQGTTLTVSS VL: DVVLTQSPTSLAVSLGQRATISCQASQNIDGNTYMNWYQQKPGQPPKVLIYSIFNLESGIPARFSGSGSGTHFTLTIHPVEEEDAATYYCQQSNDYPYTFGGGTKLEIK | 3.02 | 111 | –
10 | hu231 (antibody, human IgG4 S228P, kappa, V domains shown) VH: QVQLVQSGSELKKPGASVKVSCKASGYTFTGYTMNWVRQAPGQGLEWMGLINPYIGNTHYNQKFKDRFVFSVDRSSSTAYLQISSLKAEDTAVYYCARELDSGFDYWGQGTLVTVSS VL: DVVMTQTPLSLSVTPGQPASISCRSSQNIVHSNGDTYLEWYLQKPGQSPQLLIYKVSNRFSGVPDRFSGSGSGTDFTLKISRVEAEDVGVYYCYQGSHVPWTFGQGTKLEIKR | – | – | IC50 (CGRP antigen [1]): 0.0284 µg/mL; relative activity (%) vs C245 (CGRP antigen [1]): 91%; Relative binding activity, % (Biotin-huCGRPaSA [2]): 68%
11 | C48 (antibody, V domains shown, 1B2-HC + 1A2-LC2; chimeric, human constant regions) VH: EVQLQQSGPEVVKPGASVRISCQASGYTFTDYNMHWVKQSHGKSLEWIGYIFPYNGVAVYNRKFRSKATLIIDKSSTTAYMELRSLTSEDSAVYYCAREGLGGYWGQGTTLTVSS VL: DIVLTQSPASLAVSLGQRATISCKASQNIDYDGYAYLNWYQQKPGQPPKVLIYSVFNLESGIPARFSGSGSGTDFTLNIHPVEEEDAATYYCQQSNEFPYTFGGGTKLEVK | 3.12 | 60.4 | Relative binding activity (%) vs Ref(Teva) (CGRP antigen [5]): 93%
12 | C97 (antibody, V domains shown, 2A2-HC + 1F5-LC1; chimeric, human constant regions) VH: EVQLQQSGPELVKPGASVKISCKASGYTFTDYNMHWVKQSHGKSLEWIGYVYPYNGGSAYNQKFKSKATLTVDTSSSIAYMDLHSLTSEDSAVYYCAREGLGGYWGQGTTLAVSS VL: DIVLTQSPASLAVSLGQRATISCKASQNIDFDGYAYMNWYQHKPGQPPRVLIYSVFNLESGIPARFSGSGSGTDFTLNIHPVEEEDAATYYCQQSHEVPYTFGGGTNLEIK | 3.03 | 41.9 | Relative binding activity (%) vs Ref(Teva) (CGRP antigen [5]): 98.4%
13 | C69 (antibody, V domains shown, 1B2-HC + 3H10-LC2; chimeric, human constant regions) VH: EVQLQQSGPEVVKPGASVRISCQASGYTFTDYNMHWVKQSHGKSLEWIGYIFPYNGVAVYNRKFRSKATLIIDKSSTTAYMELRSLTSEDSAVYYCAREGLGGYWGQGTTLTVSS VL: DIVLTQSPDSLAVSLGQRATISCKASQNIDYGGYSYMNWYQQKPGQPPKVLIYSVFNLESGIPARFSGSGSGTDFTLTIHPVEEEDAATYYCQQSNEAPYTFGGGTKLEIR | 3.07 | 221 | Relative binding activity (%) vs Ref(Teva) (CGRP antigen [5]): 42.2%
14 | C51 (antibody, V domains shown, 1B2-HC + 1F5-LC1; chimeric, human constant regions) VH: EVQLQQSGPEVVKPGASVRISCQASGYTFTDYNMHWVKQSHGKSLEWIGYIFPYNGVAVYNRKFRSKATLIIDKSSTTAYMELRSLTSEDSAVYYCAREGLGGYWGQGTTLTVSS VL: DIVLTQSPASLAVSLGQRATISCKASQNIDFDGYAYMNWYQHKPGQPPRVLIYSVFNLESGIPARFSGSGSGTDFTLNIHPVEEEDAATYYCQQSHEVPYTFGGGTNLEIK | 3.04 | 56 | –
